Columns and labels:
scavenger receptor CD36 [1] = test: flow cytometry on CD36-transfected CHO cells, rAv17 at 5 µg/ml; baseline 20%
scavenger receptor CD36 [2] = test: flow cytometry on CD36-transfected CHO cells, rAv17 at 2.5 µg/ml; baseline 20%

Substance: recombinant Acanthocheilonema viteae cystatin (rAv17)
- fluorescence positive cells (scavenger receptor CD36 [1]): 89%
- fluorescence positive cells (scavenger receptor CD36 [2]): 71%

From patent US20120184485A1
